From publication PMC2631452, “Redox biology of Mycobacterium tuberculosis H37Rv: protein-protein interaction between GlgB and WhiB1 involves exchange of thiol-disulfide” (BMC Biochemistry, 2009)

Biological target: T1, purified, oxidized GlgB pre-alkylated with iodoacetamide (Mycobacterium tuberculosis H37Rv, UniProt P9WN45 1-731, free cysteines C95 and C658 alkylated with iodoacetamide; C193 and C617 in an intra-molecular disulfide bond (oxidized))
T1 construct: GlgB (Rv1326c), Mycobacterium tuberculosis; recombinant, about 85 kDa on SDS-PAGE; also called pre-alkylated oxidized GlgB; pre-alkylated GlgB
T1 sequence: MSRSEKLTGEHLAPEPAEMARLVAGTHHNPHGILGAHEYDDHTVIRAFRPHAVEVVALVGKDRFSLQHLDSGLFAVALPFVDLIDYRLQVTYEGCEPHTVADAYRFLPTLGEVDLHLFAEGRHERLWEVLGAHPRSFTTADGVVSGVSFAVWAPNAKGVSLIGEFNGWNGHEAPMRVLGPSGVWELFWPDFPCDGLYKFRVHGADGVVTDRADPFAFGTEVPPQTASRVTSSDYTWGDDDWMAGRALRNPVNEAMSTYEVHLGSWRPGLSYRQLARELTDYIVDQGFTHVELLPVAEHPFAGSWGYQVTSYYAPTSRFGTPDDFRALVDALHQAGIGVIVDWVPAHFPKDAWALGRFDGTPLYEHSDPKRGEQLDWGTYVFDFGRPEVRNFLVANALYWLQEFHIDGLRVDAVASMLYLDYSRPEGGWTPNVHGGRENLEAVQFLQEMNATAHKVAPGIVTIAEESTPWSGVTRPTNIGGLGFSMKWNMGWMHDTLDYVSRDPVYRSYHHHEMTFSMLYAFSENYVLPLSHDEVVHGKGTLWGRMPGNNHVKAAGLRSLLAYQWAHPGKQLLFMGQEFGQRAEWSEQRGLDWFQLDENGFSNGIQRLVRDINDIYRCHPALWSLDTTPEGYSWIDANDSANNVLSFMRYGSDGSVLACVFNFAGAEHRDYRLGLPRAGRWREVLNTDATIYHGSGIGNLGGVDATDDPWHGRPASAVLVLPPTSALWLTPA
Experiment: […]; 50 mM Tris.HCl pH 8.0, 100 mM NaCl, 0.05% Triton X-100, 2 mM EDTA, 10 mM MgCl2, 25°C; […]
Conditions: both partners purified

B1: WhiB1C40S (natural protein)
chain: MDWRHKAVCRDEDPELFFPVGNSGPALAQIADAKLVCNRSPVTTECLSWALNTGQDSGVWGGMSEDERRALKRRNARTKARTGV
notes: also called C40S mutant of WhiB1
- binding result: binds
